Data: article PMC12618663

Tests used:
[1] = molecular target: TMexC1 adapter, Strep-tagged, from the single plasmid pBAD24::tmexCD1-toprJ1 (Klebsiella pneumoniae); assay: cryo-EM structure
[2] = molecular target: TOprJ1 outer-membrane channel prepared alone, C-terminal 6x His tag (pET28::toprJ1) (Klebsiella pneumoniae); assay: SEC
[3] = molecular target: TOprJ1 outer-membrane channel prepared alone, C-terminal 6x His tag (pET28::toprJ1) (Klebsiella pneumoniae); assay: negative-stain electron microscopy
[4] = molecular target: TMexD1 transporter, tag-free, from the single plasmid pBAD24::tmexCD1-toprJ1 (Klebsiella pneumoniae); assay: cryo-EM structure
[5] = molecular target: TMexD1 transporter, C-terminal 6x His tag (pET28::tmexD1) (Klebsiella pneumoniae); assay: SEC
[6] = molecular target: TOprJ1 outer-membrane channel, 6x His-tagged, from the single plasmid pBAD24::tmexCD1-toprJ1 (Klebsiella pneumoniae); assay: cryo-EM structure
[7] = molecular target: TMexC1 adapter prepared alone, C-terminal 6x His tag (Klebsiella pneumoniae); assay: SEC

## TMexC1 adapter, Strep-tagged, from the single plasmid pBAD24::tmexCD1-toprJ1 (natural protein)
[1]
  stoichiometry N: 6

## TOprJ1 outer-membrane channel prepared alone, C-terminal 6x His tag (pET28::toprJ1) (natural protein)
[2]
  stoichiometry N: 3
[3]
  stoichiometry N: 3

## TMexD1 transporter, tag-free, from the single plasmid pBAD24::tmexCD1-toprJ1 (natural protein)
[4]
  stoichiometry N: 3

## TMexD1 transporter, C-terminal 6x His tag (pET28::tmexD1) (natural protein)
[5]
  stoichiometry N: 3

## TOprJ1 outer-membrane channel, 6x His-tagged, from the single plasmid pBAD24::tmexCD1-toprJ1 (natural protein)
[6]
  stoichiometry N: 3

## TMexC1 adapter prepared alone, C-terminal 6x His tag (natural protein)
[7]
  stoichiometry N: 6
